Consider 2 molecules from patent US20240181013A1, “POEGMA COPOLYMER CONJUGATES AND METHODS OF TREATING DISEASES” (Duke University, priority 2021, published 2024).

One data set has as its system C57BL6/J mice. The note with it: mouse, in vivo.
The next data set deals with C57BL/6J mice. The settings on record: mouse, in vivo, sc.

Protocol for C57BL/6J mice: (§1) Immunogenicity. Immunogenicity of POEGMA was tested and compared to that of PEG in three sets of immunogenicity experiments. […] In the second set of experiments, mice were injected with OVA (Invivogen), OVA-PEG10K, and OVA-POEGMA10K at 9.6 nmol kg^−1. In the final set, OVA, OVA-PEG10K, and OVA-POEGMA10K were emulsified in an equal volume of sterile and endotoxin-free adjuvant (Invivogen) and then administrated into 7-week-old C57BL/6J mice (n=10) at 9.6 nmol kg^−1. Complete Freund's adjuvant (CFA) was used for the first injection, while incomplete Freund's adjuvant (IFA) was the adjuvant of choice for the rest of the injections. In all experimental sets, an equal injection volume of PBS (or PBS emulsified in CFA or IFA) was used as a negative control. All drugs were administrated into mice every 17 days three times (Day 0, 17, and 34). […]
(§2) Analysis of anti-drug antibodies (ADA), ADAs were analyzed using a Luminex multiplex immunoassay (LMI) according to the manufacturer's instructions with minor modifications. […]
(§3) In a typical LMI assay, 50 μl of the diluted plasma samples (n=3) were transferred to a black, round-bottom 96-well-plate (Corning). […] Finally, magnetic beads were suspended in 100 μl of assay buffer, followed by measuring mean fluorescence signal intensity (MFI) using MAGPIX (Luminex) instrument. […]
Protocol for C57BL6/J mice: as §1, §2, §3

B1: OVA-PEG: ovalbumin conjugated to ~10 kDa PEG via activated carbonate-amine conjugation (conjugate, UniProt P01012 2-386, looked up)
Ovalbumin: GSIGAASMEFCFDVFKELKVHHANENIFYCPIAIMSALAMVYLGAKDSTRTQINKVVRFDKLPGFGDSIEAQCGTSVNVHSSLRDILNQITKPNDVYSFSLASRLYAEERYPILPEYLQCVKELYRGGLEPINFQTAADQARELINSWVESQTNGIIRNVLQPSSVDSQTAMVLVNAIVFKGLWEKAFKDEDTQAMPFRVTEQESKPVQMMYQIGLFRVASMASEKMKILELPFASGTMSMLVLLPDEVSGLEQLESIINFEKLTEWTSSNVMEERKIKVYLPRMKMEEKYNLTSVLMAMGITDVFSSSANLSGISSAESLKISQAVHAAHAEINEAGREVVGSAEAGVDAASVSEEFRADHPFLFCIKHIATNAVLFFGRCVSP
modifications: 10 kDa PEG conjugate
Turning to B1, the “PEG-specific IgM titer, higher than with exendin-PEG” value with C57BL6/J mice is about 60 fold.

B2: OVA-POEGMA: ovalbumin conjugated to ~10 kDa EG3 POEGMA via activated carbonate-amine conjugation (conjugate, UniProt P01012 2-386, looked up)
Ovalbumin: GSIGAASMEFCFDVFKELKVHHANENIFYCPIAIMSALAMVYLGAKDSTRTQINKVVRFDKLPGFGDSIEAQCGTSVNVHSSLRDILNQITKPNDVYSFSLASRLYAEERYPILPEYLQCVKELYRGGLEPINFQTAADQARELINSWVESQTNGIIRNVLQPSSVDSQTAMVLVNAIVFKGLWEKAFKDEDTQAMPFRVTEQESKPVQMMYQIGLFRVASMASEKMKILELPFASGTMSMLVLLPDEVSGLEQLESIINFEKLTEWTSSNVMEERKIKVYLPRMKMEEKYNLTSVLMAMGITDVFSSSANLSGISSAESLKISQAVHAAHAEINEAGREVVGSAEAGVDAASVSEEFRADHPFLFCIKHIATNAVLFFGRCVSP
modifications: 10 kDa EG3 POEGMA conjugate
In the case of B2, the “anti-POEGMA response with Freund's adjuvant” value in the data set with C57BL/6J mice is “only a weak IgM response disappearing after the first injection”.
